We go through four substances from US20210292396A1.

This test addresses gp120 (isolate: 92BR020) (HIV).

Values joined by “and” are separate entries in the source; they are usually repeats but may differ in a detail not shown here. Equal entries are not always repeated.

Usually EC50 (read off the curve) stands for the concentration giving half of the maximal effect. 2G12 (antibody) yielded a concentration for a half-maximal effect (EC50 (read off the curve)) of 0.07 µg/mL. In turn, PGT128 (antibody) yielded an EC50 (read off the curve) of 0.05 µg/mL. Next, PGT135 (antibody): 0.05 µg/mL and 0.1 µg/mL; VRC01 (antibody): 0.07 µg/mL.
